Source: US20240124556A1, “KERATIN BD-3, PREPARATION METHOD THEREFOR AND PHARMACEUTICAL COMPOSITION AND USE THEREOF” (INSTITUTE OF MATERIA MEDICA, CHINESE ACADEMY OF MEDICAL …, priority 2019, published 2024)

How the values were obtained:
[1] = tested on: acetic acid writhing in ICR mice; experiment: Acetic acid writhing in ICR mice; format: in vivo; settings: for Writhing incubation period: 0.6% acetic acid i.p., model group 204.2 ± 19.6; for Frequency of writhing: within 15 minutes, model group 33.3 ± 2.5
Description: • Animals: male ICR mice; • Drugs and reagents: aspirin, physiological saline, glacial acetic acid, protein BD-3. • Experiment grouping: • Model group; • Aspirin 300 mg/kg group; • Protein BD-3, 50 mg/kg group, 200 mg/kg group.
One day after the experimental animals adapt to the environment, Aspirin 300 mg/kg, protein BD-3 50 mg/kg, 200 mg/kg were given orally one hour in advance, and the administration volume was 10 ml/kg; Then, 0.6% acetic acid solution was injected intraperitoneally, and the incubation period (seconds) and frequency of writhing in the animal was observed within 15 minutes.
Calculate the mean and standard error of the data in each group. Compared with the model group by TTEST, P<0.05 was considered as statistically different.

[2] = tested on: phenol red excretion in mice; experiment: Expectorant test, phenol red excretion method in mice; format: in vivo, ICR mice; settings: for Phenol red excretion: X ± SEM, solvent control 0.506 ± 0.040
Description: • Animals: male ICR mice; • Drugs and reagents: Mucosolvan (ambroxol hydrochloride tablets), phenol red, sodium bicarbonate, protein BD-3; • Instruments: centrifuge (Sigma-3K15 type), balance (XS105DU type), Microplate tester (BIO-TEK type). • Experiment Grouping: • Solvent control group; • Mucosolvan 30 mg/kg group; • Protein BD-3, 20 mg/kg group, 50 mg/kg group.
The animals were fasted and water was taken freely 16 hours before the experiment. Orally administered Mucosolvan and different doses of protein BD-3 (administration volume 10 ml/kg) in groups, and the solvent control group was given the same volume of distilled water. One hour later, 2.5% phenol red solution was injected intraperitoneally. Mice were sacrificed by neck dislocation after 30 minutes. Take a trachea from below the thyroid cartilage to the branch of the trachea, and put the trachea into 3 ml 5% NaHCO3 solution and let it stand for 3 hours. Take 1 ml of the supernatant and centrifuge at 3000 rpm for 5 minutes. Measure and record the absorbance at 546 nm. According to the standard curve of phenol red, the excretion of phenol red was calculated.
Record the time point of oral administration, the time point of intraperitoneal injection of 2.5% phenol red solution, and the time point of taking the trachea respectively; The absorbance of each group of samples was measured by the microplate reader at 546 nm, Calculate the excretion of phenol red according to the standard curve of phenol red. Calculate the mean and standard error of the data in each group, and use TTEST to compare the solvent control group with other groups, and P<0.05 is considered as a significant difference.

[3] = tested on: PTZ-induced epilepsy in mice; experiment: Pentylenetetrazole (PTZ)-induced epilepsy in mice; format: in vivo, ICR mice; settings: for mortality rate / Grade IV seizure rate / Cases of Grade IV / Cases of deaths: PTZ 65 mg/kg i.p.; for mortality rate: model group 10%; for Grade IV seizure rate: model group 90%; for Cases of Grade IV / Cases of deaths: of 10 mice; for Cases of Grade IV: 15 min observation, model group 9; for Cases of deaths: model group 1; for Grade IV seizure incubation period / Grade III seizure incubation period: mean ± SEM; for Grade IV seizure incubation period: maximum recorded 900 seconds, model group 185 ± 84; for Grade III seizure incubation period: model group 63 ± 6
Description: • Animals: male ICR mice; • Medicines: Pentylenetetrazol (PTZ), Retigabine, Protein BD-3. • Experiment grouping: • Model group; • Retigabine 60 mg/kg group; • Protein BD-3, 50 mg/kg group, 200 mg/kg group;
The drug was administered once in the afternoon the day before modeling, On the day of modeling, PTZ-65 mg/kg (modeling agent) was injected intraperitoneal 1 hour after the test drug was administered intragastrically, and the positive drug can be administered once half an hour before modeling. Continue to observe for 15 minutes after injection of PTZ.
Observation index: (1)Seizure situation: the time of seizures from Grade III to Grade VI; (2)Death situation
Seizure grade: Refer to Racine grading standard: Grade 0: No response; Grade I: manifested as twitching of facial muscles or the corners of the mouth; Grade II: can nod; Grade III: twitching of one limb; Grade IV: rigidity or body twitching; Grade V: generalized epilepsy (generalized tonic seizures).
Count the cases of seizures and deaths in each group of mice in the experiment; Grade III and IV incubation period. The incubation period of mice that have not attacked to Grade IV is recorded as the maximum of 900 seconds. Chi-square test was used for statistics of the number of cases. Calculate the mean and standard error of the incubation period. Use TTEST to compare the model group with other groups, and P<0.05 is considered as a significant difference.

[4] = summary statement, no dose given

B1: BD-3: recombinant keratin, amino acid sequence SEQ ID NO:1, expressed in E. coli, band around 43 kD; tested material prepared in Example 4 (protein, listed as Bos taurus)
chain: MSYSCCLPNLSFRSSCSSRPCVPSSCCGTTLPGACNIPANVGSCNWFCEGSFNGSEKETMQFLNDRLASYLEKVRQLERDNAELESRILERSQQKILANKAENARLVVQIDNAKLAADDFRTKYQTELGLRQLVESDINGLRRILDELTLCKSDLEAQVESLKEELICLKQNHEQEVNTLRSQLGDRLNVEVDAAPTVDLNRVLNETRAQYEALVETNRRDVEEWYIRQTEELNKQVVSSSEQLQSYQAEIIELRRTVNALEVELQAQHNLRDSLENTLTETEARYSCQLAQVQGLIGNVESQLAEIRSDLERQNQEYQVLLDVRARLECEINTYRGLLDSEDCKLPCNPCATTNASSVGSCVTNPCTPCGPRSRFGPCNTFGC
Writhing incubation period ([1]; BD-3 50 mg/kg oral): 221.5 ± 28.4 s | Frequency of writhing ([1]; BD-3 50 mg/kg oral): 24.7 ± 3.0 times | Times of writhing vs model group (in words) ([1]; BD-3 50 mg/kg, P<0.05): can significantly reduce the times of writhing in mice | Writhing incubation period ([1]; BD-3 200 mg/kg oral): 189.8 ± 10.4 s | Frequency of writhing ([1]; BD-3 200 mg/kg oral): 29.5 ± 4.7 times | Summary: analgesic effect, writhing (in words) [1, 4]: can significantly reduce the number of writhing times in mice | Phenol red excretion ([2]; BD-3 20 mg/kg oral): 0.750 ± 0.085 µg/mL | Excretion of phenol red vs solvent control (in words) ([2]; BD-3 20 mg/kg, P<0.05): significantly increased the excretion of phenol red | Phenol red excretion ([2]; BD-3 50 mg/kg oral): 0.706 ± 0.114 µg/mL | Summary: expectorant effect (in words) [2, 4]: has obvious expectorant effect | mortality rate ([3]; BD-3 50 mg/kg intragastric): 10% | Grade IV seizure rate ([3]; BD-3 50 mg/kg intragastric): 100% | Cases of Grade IV ([3]; BD-3 50 mg/kg intragastric): 10 | Cases of deaths ([3]; BD-3 50 mg/kg intragastric): 1 | Grade IV seizure incubation period ([3]; BD-3 50 mg/kg): 162 ± 58 s | Grade III seizure incubation period ([3]; BD-3 50 mg/kg): 75 ± 6 s | Epilepsy Grade III incubation period vs model group (in words) ([3]; BD-3 200 mg/kg): has a tendency to extend the incubation period, but there is no statistical difference compared with the model group | mortality rate ([3]; BD-3 200 mg/kg intragastric): 0% | Grade IV seizure rate ([3]; BD-3 200 mg/kg intragastric): 70% | Cases of Grade IV ([3]; BD-3 200 mg/kg intragastric): 7 | Cases of deaths ([3]; BD-3 200 mg/kg intragastric): 0 | Grade IV seizure incubation period ([3]; BD-3 200 mg/kg): 327 ± 125 s | Grade III seizure incubation period ([3]; BD-3 200 mg/kg): 62 ± 5 s
